One block for each sequence: values may come before it. Ends that are not written are not given here. * marks the point of attachment. Biotin = O=C1N[C@H]2[C@H](CS[C@H]2CCCCC(=O)*)N1
Legend:
Assay type in all cases: binding
[1] = biological target: T1, PDZ protein (GST-PDZ fusion) (Homo sapiens, UniProt Q13796); assay: G' assay (10 uM PL peptide), results of TABLE 7 and TABLE 12; settings: PDZ hAPXL, PDZ Domain 1
T1 construct: made in house; host or cells: E. coli (DH5alpha, BL21 or JM109)
Summary of the method: (§1)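 Biotinylated PL peptides at 10 uM (vs 20 uM in G^0 assay) bound to GST-PDZ fusions; PDZ protein at 5 ug/ml unless another concentration listed. Bound peptide read as A450 nm, classified 0–5 (0 = A450 0; 5 = A450 >4 repeated).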

[2] = biological target: T2, PDZ protein (GST-PDZ fusion) (Homo sapiens, UniProt Q9NR12); assay: as above; settings: PDZ ENIGMA, PDZ Domain 1
T2 construct: made in house; host or cells: E. coli (DH5alpha, BL21 or JM109)
T2 sequence (Q9NR12 whole entry, the tested form may be a part): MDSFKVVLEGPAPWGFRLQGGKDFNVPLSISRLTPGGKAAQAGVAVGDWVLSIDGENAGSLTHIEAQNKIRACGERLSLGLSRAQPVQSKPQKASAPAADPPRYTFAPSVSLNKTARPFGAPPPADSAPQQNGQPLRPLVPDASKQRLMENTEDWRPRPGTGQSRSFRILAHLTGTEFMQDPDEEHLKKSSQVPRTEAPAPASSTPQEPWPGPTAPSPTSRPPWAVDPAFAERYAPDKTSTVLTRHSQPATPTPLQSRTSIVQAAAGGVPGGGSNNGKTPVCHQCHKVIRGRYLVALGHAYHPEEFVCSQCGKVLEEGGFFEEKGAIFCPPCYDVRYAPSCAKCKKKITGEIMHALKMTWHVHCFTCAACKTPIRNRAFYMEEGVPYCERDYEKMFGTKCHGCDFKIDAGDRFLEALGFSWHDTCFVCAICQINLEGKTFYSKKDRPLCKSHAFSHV
Summary of the method: as §1

[3] = biological target: T3, PDZ protein (GST-PDZ fusion) (Homo sapiens, UniProt O75970); assay: as above; settings: PDZ MUPP-1, PDZ Domain 10
T3 construct: made in house; host or cells: E. coli (DH5alpha, BL21 or JM109)
Summary of the method: as §1

[4] = biological target: T4, PDZ protein (GST-PDZ fusion) (Homo sapiens, UniProt Q02410); assay: as above
T4 construct: made in house; host or cells: E. coli (DH5alpha, BL21 or JM109)
T4 sequence (Q02410 1-837): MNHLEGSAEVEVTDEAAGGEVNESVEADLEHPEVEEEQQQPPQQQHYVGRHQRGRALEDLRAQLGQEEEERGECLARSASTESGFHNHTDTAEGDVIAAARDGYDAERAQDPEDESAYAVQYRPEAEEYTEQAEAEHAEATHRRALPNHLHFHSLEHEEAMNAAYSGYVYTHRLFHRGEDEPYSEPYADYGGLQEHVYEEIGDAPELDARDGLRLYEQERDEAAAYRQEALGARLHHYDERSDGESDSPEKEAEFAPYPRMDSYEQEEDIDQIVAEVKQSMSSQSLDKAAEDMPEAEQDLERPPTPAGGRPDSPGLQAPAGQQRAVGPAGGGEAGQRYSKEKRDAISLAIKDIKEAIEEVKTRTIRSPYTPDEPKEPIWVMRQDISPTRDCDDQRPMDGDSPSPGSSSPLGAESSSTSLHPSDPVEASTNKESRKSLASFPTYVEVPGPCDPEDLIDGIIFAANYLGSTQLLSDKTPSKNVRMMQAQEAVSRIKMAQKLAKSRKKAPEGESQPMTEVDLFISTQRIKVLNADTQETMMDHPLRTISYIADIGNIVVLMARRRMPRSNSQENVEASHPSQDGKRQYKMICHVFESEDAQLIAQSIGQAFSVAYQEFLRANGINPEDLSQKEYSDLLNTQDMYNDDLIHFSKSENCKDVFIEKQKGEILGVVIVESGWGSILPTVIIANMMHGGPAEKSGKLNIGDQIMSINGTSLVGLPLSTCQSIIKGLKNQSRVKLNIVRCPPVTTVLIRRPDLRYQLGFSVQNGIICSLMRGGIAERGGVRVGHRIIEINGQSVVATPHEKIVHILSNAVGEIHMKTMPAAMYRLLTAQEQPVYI
Summary of the method: as §1

[5] = biological target: T5, PDZ protein (GST-PDZ fusion) (Homo sapiens, UniProt Q12923); assay: as above; settings: PDZ PTPL-1, PDZ Domain 4
T5 construct: made in house; host or cells: E. coli (DH5alpha, BL21 or JM109)
Summary of the method: as §1

[6] = biological target: T6, PDZ protein (GST-PDZ fusion) (Homo sapiens, UniProt Q6P0Q8); assay: as above
T6 construct: made in house; host or cells: E. coli (DH5alpha, BL21 or JM109)
T6 sequence (Q6P0Q8 whole entry, the tested form may be a part): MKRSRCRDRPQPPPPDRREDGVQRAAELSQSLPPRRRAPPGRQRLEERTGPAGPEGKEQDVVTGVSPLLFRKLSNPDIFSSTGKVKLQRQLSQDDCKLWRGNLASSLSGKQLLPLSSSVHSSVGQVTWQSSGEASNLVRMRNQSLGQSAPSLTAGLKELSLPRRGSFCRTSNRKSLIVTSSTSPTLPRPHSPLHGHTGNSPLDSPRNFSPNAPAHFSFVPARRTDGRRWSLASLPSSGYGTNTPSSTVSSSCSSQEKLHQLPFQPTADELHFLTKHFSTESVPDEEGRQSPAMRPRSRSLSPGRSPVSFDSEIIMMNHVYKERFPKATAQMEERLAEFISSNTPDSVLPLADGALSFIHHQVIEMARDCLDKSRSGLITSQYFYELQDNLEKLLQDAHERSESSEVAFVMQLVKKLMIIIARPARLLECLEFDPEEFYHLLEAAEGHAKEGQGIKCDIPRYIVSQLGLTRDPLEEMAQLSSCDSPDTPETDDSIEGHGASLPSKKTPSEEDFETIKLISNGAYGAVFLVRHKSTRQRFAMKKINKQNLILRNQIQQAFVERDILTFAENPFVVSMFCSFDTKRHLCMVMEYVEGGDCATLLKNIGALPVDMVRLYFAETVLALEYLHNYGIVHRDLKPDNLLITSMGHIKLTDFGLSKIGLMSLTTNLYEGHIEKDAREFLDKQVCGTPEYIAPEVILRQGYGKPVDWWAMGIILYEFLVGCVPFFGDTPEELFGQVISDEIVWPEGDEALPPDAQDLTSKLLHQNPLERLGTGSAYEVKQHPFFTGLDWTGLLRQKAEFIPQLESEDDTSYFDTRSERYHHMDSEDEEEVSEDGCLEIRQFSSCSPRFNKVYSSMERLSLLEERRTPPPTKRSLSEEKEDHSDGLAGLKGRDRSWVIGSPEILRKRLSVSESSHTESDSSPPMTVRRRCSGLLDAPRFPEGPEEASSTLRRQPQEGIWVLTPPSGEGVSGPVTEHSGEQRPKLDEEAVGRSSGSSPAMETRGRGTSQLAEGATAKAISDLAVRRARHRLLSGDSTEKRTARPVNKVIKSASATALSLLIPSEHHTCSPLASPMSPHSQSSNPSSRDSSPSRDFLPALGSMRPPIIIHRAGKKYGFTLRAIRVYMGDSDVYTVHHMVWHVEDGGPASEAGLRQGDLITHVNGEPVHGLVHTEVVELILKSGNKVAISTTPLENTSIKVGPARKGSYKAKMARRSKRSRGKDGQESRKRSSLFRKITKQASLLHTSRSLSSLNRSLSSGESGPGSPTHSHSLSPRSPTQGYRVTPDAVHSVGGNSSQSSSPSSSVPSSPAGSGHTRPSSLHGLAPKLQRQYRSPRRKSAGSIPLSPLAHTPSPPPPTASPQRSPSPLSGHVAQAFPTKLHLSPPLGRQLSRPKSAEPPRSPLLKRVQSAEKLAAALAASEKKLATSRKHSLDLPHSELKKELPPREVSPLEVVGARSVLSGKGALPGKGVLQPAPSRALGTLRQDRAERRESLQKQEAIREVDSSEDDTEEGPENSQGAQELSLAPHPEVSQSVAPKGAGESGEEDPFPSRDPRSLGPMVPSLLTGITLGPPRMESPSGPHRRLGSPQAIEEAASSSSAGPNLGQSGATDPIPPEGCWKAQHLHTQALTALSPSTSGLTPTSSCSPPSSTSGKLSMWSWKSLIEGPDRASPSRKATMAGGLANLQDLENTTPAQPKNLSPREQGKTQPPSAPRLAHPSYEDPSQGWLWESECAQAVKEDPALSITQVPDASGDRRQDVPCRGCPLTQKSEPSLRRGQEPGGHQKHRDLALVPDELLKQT
Summary of the method: as §1

[7] = biological target: T7, PDZ protein (GST-PDZ fusion) (Homo sapiens, UniProt Q99767); assay: as above; settings: PDZ X11-beta, PDZ Domain 2
T7 construct: made in house; host or cells: E. coli (DH5alpha, BL21 or JM109)
T7 sequence (Q99767 1-749): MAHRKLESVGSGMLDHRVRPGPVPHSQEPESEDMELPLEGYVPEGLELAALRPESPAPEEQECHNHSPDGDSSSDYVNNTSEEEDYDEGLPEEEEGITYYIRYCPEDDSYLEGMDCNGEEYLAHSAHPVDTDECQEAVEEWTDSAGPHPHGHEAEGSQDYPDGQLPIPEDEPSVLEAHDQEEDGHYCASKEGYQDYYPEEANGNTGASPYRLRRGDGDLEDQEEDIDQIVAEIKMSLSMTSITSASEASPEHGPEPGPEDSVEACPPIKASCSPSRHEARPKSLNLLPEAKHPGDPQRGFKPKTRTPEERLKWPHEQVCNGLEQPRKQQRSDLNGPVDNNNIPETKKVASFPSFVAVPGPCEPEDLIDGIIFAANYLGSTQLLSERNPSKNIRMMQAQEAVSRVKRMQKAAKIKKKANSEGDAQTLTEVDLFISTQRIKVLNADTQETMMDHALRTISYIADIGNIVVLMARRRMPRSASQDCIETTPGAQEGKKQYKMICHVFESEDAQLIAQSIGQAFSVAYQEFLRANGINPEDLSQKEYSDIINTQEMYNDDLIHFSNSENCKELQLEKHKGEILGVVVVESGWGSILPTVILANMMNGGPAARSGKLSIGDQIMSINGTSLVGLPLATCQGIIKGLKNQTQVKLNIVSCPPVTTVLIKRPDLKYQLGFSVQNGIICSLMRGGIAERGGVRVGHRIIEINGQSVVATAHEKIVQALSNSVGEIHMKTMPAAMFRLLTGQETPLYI
Summary of the method: as §1

[8] = tested on: PDZ protein (GST-PDZ fusion); assay: as above
Summary of the method: as §1

[9] = biological target: T8, TIP-1 (GST-TIP-1) (Homo sapiens, UniProt O14907, I73S); assay: G assay with unlabeled 8 amino acid competitor peptide (Example 4, FIGS. 2B, 2C)
T8 construct: made in house; host or cells: E. coli DH5alpha
T8 sequence (O14907 3-123 I73S): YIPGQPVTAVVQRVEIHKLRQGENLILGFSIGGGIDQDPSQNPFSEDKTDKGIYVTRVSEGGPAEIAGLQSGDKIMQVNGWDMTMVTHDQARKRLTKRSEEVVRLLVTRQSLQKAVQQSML
Protocol: FIGS. 2A, 2B and 2C show binding and competition assays with the PDZ ligands of CD95 (Fas) and Tax for the PDZ domain of TIP-1.
Upon infection, the higher affinity of Tax could preferentially bind TIP-1 protein available in the cell, removing the TIP-1 bound to CD95 (Fas) and thereby rendering the cell less able to undergo apoptosis. In order to test this, competition experiments between Tax and CD95 for TIP-1 binding were performed using the ‘G Assay’, but adding additional unlabeled competitor peptide at step 9 of the ‘G Assay’ presented in EXAMPLE 3 section D.
FIGS. 2B and 2C show the results of these experiments. The graphs show the amount of binding of the biotinylated 20 amino acid peptide in the presence of increasing concentrations of unlabeled 8 amino acid competitor.

[10] = biological target: T9, DLG-1 (Homo sapiens, UniProt Q12959); assay: G assay competition of short unlabeled peptides with biotinylated 20-mers (Example 6, TABLE 6); settings: competitor 50 uM; for % binding: 100 = no competitor
T9 construct: protein spans from amino terminal end of first PDZ domain to carboxy-terminal end of third PDZ domain in frame with GST in vector; made in house; host or cells: E. coli DH5alpha
T9 sequence (Q12959 224-546 limits assumed): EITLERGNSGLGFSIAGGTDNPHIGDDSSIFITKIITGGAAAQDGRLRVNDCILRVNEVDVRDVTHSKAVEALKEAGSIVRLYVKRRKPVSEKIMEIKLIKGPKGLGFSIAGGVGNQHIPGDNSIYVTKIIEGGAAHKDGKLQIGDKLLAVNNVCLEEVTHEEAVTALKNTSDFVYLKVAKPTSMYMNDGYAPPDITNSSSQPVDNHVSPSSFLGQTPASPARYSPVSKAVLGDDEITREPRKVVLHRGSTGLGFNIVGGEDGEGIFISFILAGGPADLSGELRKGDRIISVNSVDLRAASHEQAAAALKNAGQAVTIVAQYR
Text: (§2) The potential for unlabeled 8-mers and 3-mers to compete for binding with biotinylated 20-mers to PDZ domains was examined. Interactions between a PDZ domain and two or more biotinylated peptides mimicking PDZ ligands identified through the ‘G Assay’ were used as model interactions. Short, 3 or 8 amino acid, unlabeled peptides were synthesized by standard techniques and used at variable concentrations with a set concentration of biotinylated 20-mer. Ability of both the 3-mer and 8-mer to inhibit longer peptide binding was observed, making PDZ:PL interactions an attractive target for design of small molecule or peptide therapeutics.
(§3) Peptides representing the C-terminal 3, 8 or 20 amino acids of a PDZ ligand were synthesized by standard FMOC chemistry and biotinylated if not used as an unlabeled competitor. Peptides three amino acids in length were acetylated to more properly mimic the peptide bond without introducing an amino-terminal charged group. Peptides were purified by reverse phase high performance liquid chromatography (HPLC) using a Vydac 218TP C18 Reversed Phase column having the dimensions of 10*25 mm, 5 um. Approximately 40 mg of peptide was dissolved in 2.0 ml of and aqueous solution of 49.9% acetonitrile and 0.1% Tri-Fluoro acetic acid (TFA). This solution was then injected into the HPLC machine through a […] syringe filter (Millipore). Buffers used to get a good separation are (A) distilled water with 0.1% TFA and (B) 0.1% TFA with Acetonitrile.
(§4) The G Assay was performed as described in EXAMPLE 3 with the exception that when a short competitor was used, 30 ul of competitor peptide (at twice the final concentration) was mixed with 30 ul biotinylated 20-mer (at twice the final concentration) and then added to the well.
(§5) PSD-95 and DLG-1 were incubated in the wells at 5 ug/ml as described in the G Assay protocol. Biotinylated 20-mer peptides used were 20 uM CLASP-2, 20 uM CD46, 10 uM CD95, and 10 uM KV1.3 (find sequences of peptides in TABLE 8). Competitors (unlabeled, short peptides) tested against each of the biotinylated peptides were 50 uM 8-mer of CD95, 100 uM 8-mer of CD46, 50 uM 8-mer of CLASP-2, and 1 mM and 500 uM acetylated 3-mer of CLASP-2. To deduce sequences, refer to TABLE 8. All absorbances were read at 450 nm after stopping TMB detection reaction at 30 min. Results were normalized in each group by dividing its A450 by the A450 of the PDZ/peptide binding in the absence of competitor and converting to percentage by multiplying by 100.

[11] = biological target: T10, PSD-95 (Homo sapiens, UniProt P78352); assay: as above; settings: competitor 50 uM, 100 = no competitor
T10 construct: protein spans from amino terminal end of first PDZ domain to carboxy-terminal end of third PDZ domain in frame with GST in vector; made in house; host or cells: E. coli DH5alpha
T10 sequence (P78352 58-398 limits assumed): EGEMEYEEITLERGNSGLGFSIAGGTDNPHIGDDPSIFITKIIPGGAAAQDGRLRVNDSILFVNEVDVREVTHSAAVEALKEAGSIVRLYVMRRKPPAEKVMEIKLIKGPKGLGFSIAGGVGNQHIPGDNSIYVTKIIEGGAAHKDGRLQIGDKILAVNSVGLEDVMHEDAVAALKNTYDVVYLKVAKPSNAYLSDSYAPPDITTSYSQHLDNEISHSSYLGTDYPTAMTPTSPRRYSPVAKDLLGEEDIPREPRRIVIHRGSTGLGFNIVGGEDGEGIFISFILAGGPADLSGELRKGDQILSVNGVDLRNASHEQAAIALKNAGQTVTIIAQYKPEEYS
Text: as §2, §3, §4, §5

[12] = biological target: T11, PDZ protein (GST-PDZ fusion) (Homo sapiens, UniProt P50479); assay: G' assay (10 uM PL peptide), results of TABLE 7 and TABLE 12; settings: PDZ LIM RIL, PDZ Domain 1
T11 construct: made in house; host or cells: E. coli (DH5alpha, BL21 or JM109)
T11 sequence (P50479 1-330): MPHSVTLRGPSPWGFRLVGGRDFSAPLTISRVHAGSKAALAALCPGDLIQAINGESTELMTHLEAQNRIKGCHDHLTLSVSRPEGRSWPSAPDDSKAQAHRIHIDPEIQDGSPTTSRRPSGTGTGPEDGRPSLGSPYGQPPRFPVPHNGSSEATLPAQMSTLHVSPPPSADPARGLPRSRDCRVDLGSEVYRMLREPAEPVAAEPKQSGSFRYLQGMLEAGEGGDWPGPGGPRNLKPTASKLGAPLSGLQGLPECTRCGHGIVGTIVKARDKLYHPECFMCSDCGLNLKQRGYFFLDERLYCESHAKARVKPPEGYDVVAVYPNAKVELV
Summary of the method: as §1

[13] = biological target: T12, PDZ protein (GST-PDZ fusion) (Homo sapiens, UniProt P55196); assay: as above; settings: PDZ AF6, PDZ Domain 1
T12 construct: made in house; host or cells: E. coli (DH5alpha, BL21 or JM109)
Summary of the method: as §1

[14] = biotinylated 20-mer CLASP-2 20 uM
[15] = biotinylated 20-mer KV1.3 10 uM

T1 sequence (Q13796 whole entry, the tested form may be a part): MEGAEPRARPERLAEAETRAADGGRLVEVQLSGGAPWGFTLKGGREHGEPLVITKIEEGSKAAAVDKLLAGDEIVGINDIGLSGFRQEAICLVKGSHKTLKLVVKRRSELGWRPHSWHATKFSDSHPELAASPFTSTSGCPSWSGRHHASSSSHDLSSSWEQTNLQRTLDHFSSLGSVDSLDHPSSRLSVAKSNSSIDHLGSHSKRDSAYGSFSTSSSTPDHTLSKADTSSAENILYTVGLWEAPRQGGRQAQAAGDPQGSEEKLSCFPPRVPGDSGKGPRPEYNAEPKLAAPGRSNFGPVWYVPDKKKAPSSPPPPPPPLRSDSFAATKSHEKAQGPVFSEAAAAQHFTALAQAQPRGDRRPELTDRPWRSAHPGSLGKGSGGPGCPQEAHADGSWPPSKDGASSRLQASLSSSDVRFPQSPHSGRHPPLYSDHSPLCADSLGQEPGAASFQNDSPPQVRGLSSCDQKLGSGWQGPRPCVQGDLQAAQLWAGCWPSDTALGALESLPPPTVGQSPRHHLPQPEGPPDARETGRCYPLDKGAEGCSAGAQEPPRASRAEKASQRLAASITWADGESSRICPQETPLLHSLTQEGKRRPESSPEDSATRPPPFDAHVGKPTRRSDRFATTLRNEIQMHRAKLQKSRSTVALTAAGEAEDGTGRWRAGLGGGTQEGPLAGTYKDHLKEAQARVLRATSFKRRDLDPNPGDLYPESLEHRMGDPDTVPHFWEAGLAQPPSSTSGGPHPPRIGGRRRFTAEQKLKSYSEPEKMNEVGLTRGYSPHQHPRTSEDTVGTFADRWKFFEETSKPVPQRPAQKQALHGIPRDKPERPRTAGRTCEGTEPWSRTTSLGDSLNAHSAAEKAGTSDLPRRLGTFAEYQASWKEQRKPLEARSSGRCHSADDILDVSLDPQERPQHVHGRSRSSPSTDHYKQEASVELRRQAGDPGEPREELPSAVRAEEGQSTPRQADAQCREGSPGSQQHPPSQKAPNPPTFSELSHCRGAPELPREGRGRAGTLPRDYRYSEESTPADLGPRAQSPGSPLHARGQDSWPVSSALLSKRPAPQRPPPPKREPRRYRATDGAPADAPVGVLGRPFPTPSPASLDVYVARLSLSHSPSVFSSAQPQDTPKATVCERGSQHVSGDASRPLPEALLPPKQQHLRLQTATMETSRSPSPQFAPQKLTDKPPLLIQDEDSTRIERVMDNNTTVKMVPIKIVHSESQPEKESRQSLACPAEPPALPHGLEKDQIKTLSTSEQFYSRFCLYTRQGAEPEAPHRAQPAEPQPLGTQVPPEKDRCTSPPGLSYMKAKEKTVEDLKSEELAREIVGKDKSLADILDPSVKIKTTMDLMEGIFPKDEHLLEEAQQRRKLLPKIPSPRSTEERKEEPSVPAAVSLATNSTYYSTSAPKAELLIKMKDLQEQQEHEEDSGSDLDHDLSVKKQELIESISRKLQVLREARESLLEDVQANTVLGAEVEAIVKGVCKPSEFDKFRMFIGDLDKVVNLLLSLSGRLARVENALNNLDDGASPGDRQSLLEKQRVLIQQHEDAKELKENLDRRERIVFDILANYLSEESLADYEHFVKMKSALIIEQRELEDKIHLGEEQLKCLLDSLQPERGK

- Classification [1]: 1 (A450 nm 0-1)
- Classification [2]: 1 (A450 nm 0-1)
Sequence: EVIGYIEKPGVETLEDSVF (Biotin-EVIGYIEKPGVETLEDSVF) [CDW125 (modified)]

- Classification [3]: 1 (A450 nm 0-1)
- Classification ([4]; PDZ Mint 1, PDZ Domain 1, 2): 1 (A450 nm 0-1)
- Classification ([4]; PDZ Mint 1, PDZ Domain 2): 1 (A450 nm 0-1)
- Classification [5]: 1 (A450 nm 0-1)
- Classification [1]: 1 (A450 nm 0-1)
- Classification ([6]; PDZ KIAA807): 1 (A450 nm 0-1)
- Classification ([6]; PDZ KIAA0807(S), PDZ Domain 1): 1 (A450 nm 0-1)
- Classification [7]: 1 (A450 nm 0-1)
Sequence: NGGFAVDKSDTISFTQTSQF [glutamate transporter 3]
- Classification ([8]; PDZ BAI-1, PDZ Domain 4): 1 (A450 nm 0-1)

- concentration of unlabeled competitor it takes to compete for binding of Tax to TIP-1 (FIG. 2C) ([9]; unlabeled 8 amino acid CD95 competitor, 1 μM labeled Tax 20-mer): 100 to 500 µM
- excess needed to interfere with the binding of Tax to TIP-1 ([9]; unlabeled CD95 8-mer versus labeled Tax): ~500 fold
- % binding ([10]; biotinylated 20-mer CD46 20 uM): 110%
- % binding ([10]; biotinylated 20-mer CD95 10 uM): 70%
- % binding [10, 14]: 73%
- % binding [10, 15]: 84%
- reduction of binding of CLASP-2 and CD95 labeled ligand ([10]; 2.5 to 5-fold excess): approximately 30%
- % binding ([11]; biotinylated 20-mer CD46 20 uM): 100%
- % binding ([11]; biotinylated 20-mer CD95 10 uM): 75%
- % binding [11, 14]: 92%
- % binding [11, 15]: 87%
Sequence: RNEIQSLV [CD95 8-mer, unlabeled peptide of the C-terminal 8 amino acids of CD95]

- Classification [12]: 1 (A450 nm 0-1)
- Classification [13]: 2 (A450 nm 1-2)
- Classification [1]: 1 (A450 nm 0-1)
- Classification [2]: 2 (A450 nm 1-2)
Sequence: YSATYSELEDPGEMSPPIDL (Biotin-YSATYSELEDPGEMSPPIDL) [FceRlb]
- Classification ([8]; PDZ LIM Protein, PDZ Domain 1): 2 (A450 nm 1-2)

— patent US20050282743A1, “Molecular interactions in cells” (Arbor Vita Corporation, priority 2001, published 2005)
